The values that follow come from patent US20250074984A1.

A value given as a limit tells only on which side of the number the result lay.

In experiment [1] the target is FcγRIIβ (UniProt P31994). Description: ratio of the chip-kinetics KDs on Hu FcgRIIA_R167 and Hu FcgRIIB.
Experiment [2] has as its target FcγRIIβ (UniProt P31994). Description: ratio of the chip-kinetics KDs on Hu FcgRIIB and Hu FcgRIIA_R167.
Experiment [3] addresses human FcγRIIα_R167 (human) (UniProt P12318). Description: chip kinetics; antibody captured on protein A/G, receptor injected as analyte.
Experiment [4] deals with FcγRIIβ (UniProt P31994). Described as above.
Experiment [5] deals with human FcγRIIα_H167 (human) (UniProt P12318). The description is as above.
Chain of human FcγRIIα_H167 (human) (P12318 36-218): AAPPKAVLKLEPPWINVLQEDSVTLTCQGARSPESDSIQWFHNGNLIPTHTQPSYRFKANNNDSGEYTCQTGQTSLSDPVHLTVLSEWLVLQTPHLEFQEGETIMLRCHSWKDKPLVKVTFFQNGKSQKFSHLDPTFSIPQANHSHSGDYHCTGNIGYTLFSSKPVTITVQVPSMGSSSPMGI

Chain of FcγRIIβ (P31994 46-217): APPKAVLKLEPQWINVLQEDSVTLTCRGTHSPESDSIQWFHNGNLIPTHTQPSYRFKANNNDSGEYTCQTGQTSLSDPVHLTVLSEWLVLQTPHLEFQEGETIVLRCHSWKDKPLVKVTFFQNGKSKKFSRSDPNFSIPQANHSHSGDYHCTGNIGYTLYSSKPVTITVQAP
Chain of human FcγRIIα_R167 (human) (P12318 36-218 H167R): as the sequence (P12318 36-218) above, with H132R counted along it

Broadly, the Kd is a measure of binding affinity in units of concentration. Higher therefore signals lower affinity. Regarding IgG1 P238D (antibody), in the experiment with FcγRIIβ [1], the Ratio iia/iib (KD human iia R/KD human iib) amounted to 3.12. Besides, in the experiment with FcγRIIβ [2], the Ratio iib/iia (KD human iib/KD human iia R) amounted to 0.32. Besides, the Fold = KD(IgG WT)/KD(variants) in experiment [3] is < 0.3 fold. In the experiment with FcγRIIβ [4], this substance registered a Fold = KD(IgG WT)/KD(variants) of 3.18 fold and a Kd of 1.6 µM.
Regarding IgG1 WT (antibody), the figures for the Kd in experiment [3] and in experiment [5] were 1.55 µM and 1 µM, respectively.
